In patent publication US20180155451A1 (published 2018):

B1: GpH7-B3 variant (T335_06M)/GpL16-k0 (antibody, human IgG1, kappa)
heavy: not shown
light: DIVMTQSPLSLPVTPGEPASISCQASESLVHSNRNTYLHWYLQKPGQSPQLLIYKVSNRFSGVPDRFSGSGSGTDFTLKISRVEAEDVGVYYCSQNTHVPPTFGQGTKVEIERTVAAPSVFIFPPSDEQLKSGTASVVCLLNNFYPREAKVQWKVDNALQSGNSQESVTEQDSKDSTYSLSSTLTLSKADYEKHKVYACEVTHQGLSSPVTKSFNRGEC
notes: Homodimerized; both H chains altered; also called Ho Ab T335_06M
B2: GpH7-A5/GpH7-B3 variant (T335_04F)/GpL16-k0 (antibody, human IgG1, kappa)
heavy 1: not shown
heavy 2: not shown
light: B1 light
notes: Heterodimerized; only the B3 chain altered; also called He Ab T335_04F
B3: GpH7-B3 variant (Y300_02A)/GpL16-k0 (antibody, human IgG1, kappa)
heavy: not shown
light: B1 light
notes: Homodimerized; both H chains altered; also called Ho Ab Y300_02A
B4: GpH7-B3 variant (T335_18N)/GpL16-k0 (antibody, human IgG1, kappa)
heavy: not shown
light: B1 light
notes: Homodimerized; both H chains altered; also called Ho Ab T335_18N
B5: GpH7-A5/GpH7-B3 variant (D265_10E)/GpL16-k0 (antibody, human IgG1, kappa)
heavy 1: not shown
heavy 2: not shown
light: B1 light
notes: Heterodimerized; only the B3 chain altered; also called He Ab D265_10E
B6: GpH7-A5/GpH7-B3 variant (I336_09D)/GpL16-k0 (antibody, human IgG1, kappa)
heavy 1: not shown
heavy 2: not shown
light: B1 light
notes: Heterodimerized; only the B3 chain altered; also called He Ab I336_09D
B7: GpH7-A5/GpH7-B3 variant (A330_04F)/GpL16-k0 (antibody, human IgG1, kappa)
heavy 1: not shown
heavy 2: not shown
light: B1 light
notes: Heterodimerized; only the B3 chain altered; also called He Ab A330_04F
B8: GpH7-A5/GpH7-B3 variant (I336_12R)/GpL16-k0 (antibody, human IgG1, kappa)
heavy 1: not shown
heavy 2: not shown
light: B1 light
notes: Heterodimerized; only the B3 chain altered; also called He Ab I336_12R
B9: GpH7-B3 variant (T335_09D)/GpL16-k0 (antibody, human IgG1, kappa)
heavy: not shown
light: B1 light
notes: Homodimerized; both H chains altered; also called Ho Ab T335_09D
B10: GpH7-B3 variant (T335_10E)/GpL16-k0 (antibody, human IgG1, kappa)
heavy: not shown
light: B1 light
notes: Homodimerized; both H chains altered; also called Ho Ab T335_10E
B11: GpH7-B3 variant (Y300_06M)/GpL16-k0 (antibody, human IgG1, kappa)
heavy: not shown
light: B1 light
notes: Homodimerized; both H chains altered; also called Ho Ab Y300_06M
B12: GpH7-B3 variant (Y296_20W)/GpL16-k0 (antibody, human IgG1, kappa)
heavy: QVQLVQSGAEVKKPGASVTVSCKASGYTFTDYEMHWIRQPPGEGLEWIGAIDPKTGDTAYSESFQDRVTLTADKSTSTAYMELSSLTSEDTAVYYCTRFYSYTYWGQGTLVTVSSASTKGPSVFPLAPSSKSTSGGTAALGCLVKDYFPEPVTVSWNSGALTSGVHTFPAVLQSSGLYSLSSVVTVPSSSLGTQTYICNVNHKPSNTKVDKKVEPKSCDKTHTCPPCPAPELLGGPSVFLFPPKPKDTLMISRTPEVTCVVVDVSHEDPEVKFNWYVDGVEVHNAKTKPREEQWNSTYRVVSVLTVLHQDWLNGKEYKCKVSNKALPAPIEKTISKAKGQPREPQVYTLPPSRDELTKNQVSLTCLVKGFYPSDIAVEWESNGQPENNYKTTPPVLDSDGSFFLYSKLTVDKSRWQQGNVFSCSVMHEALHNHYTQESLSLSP
light: B1 light
notes: Homodimerized; both H chains altered; also called Ho Ab Y296_20W
B13: GpH7-B3 variant (T335_07I)/GpL16-k0 (antibody, human IgG1, kappa)
heavy: not shown
light: B1 light
notes: Homodimerized; both H chains altered; also called Ho Ab T335_07I
B14: GpH7-A5/GpH7-B3 variant (A330_19Q)/GpL16-k0 (antibody, human IgG1, kappa)
heavy 1: not shown
heavy 2: not shown
light: B1 light
notes: Heterodimerized; only the B3 chain altered; also called He Ab A330_19Q
B15: GpH7-B3 variant (Y296_06M)/GpL16-k0 (antibody, human IgG1, kappa)
heavy: not shown
light: B1 light
notes: Homodimerized; both H chains altered; also called Ho Ab Y296_06M
B16: GpH7-A5/GpH7-B3 variant (I336_08L)/GpL16-k0 (antibody, human IgG1, kappa)
heavy 1: not shown
heavy 2: not shown
light: B1 light
notes: Heterodimerized; only the B3 chain altered; also called He Ab I336_08L
B17: GpH7-A5/GpH7-B3 variant (A330_01G)/GpL16-k0 (antibody, human IgG1, kappa)
heavy 1: not shown
heavy 2: not shown
light: B1 light
notes: Heterodimerized; only the B3 chain altered; also called He Ab A330_01G
B18: GpH7-A5/GpH7-B3 variant (A330_10E)/GpL16-k0 (antibody, human IgG1, kappa)
heavy 1: not shown
heavy 2: not shown
light: B1 light
notes: Heterodimerized; only the B3 chain altered; also called He Ab A330_10E
B19: GpH7-A5/GpH7-B3 variant (H268_09D)/GpL16-k0 (antibody, human IgG1, kappa)
heavy 1: not shown
heavy 2: not shown
light: B1 light
notes: Heterodimerized; only the B3 chain altered; also called He Ab H268_09D
B20: GpH7-B3 variant (T335_08L)/GpL16-k0 (antibody, human IgG1, kappa)
heavy: not shown
light: B1 light
notes: Homodimerized; both H chains altered; also called Ho Ab T335_08L
B21: GpH7-B3 variant (Y300_08L)/GpL16-k0 (antibody, human IgG1, kappa)
heavy: not shown
light: B1 light
notes: Homodimerized; both H chains altered; also called Ho Ab Y300_08L
B22: GpH7-B3 variant (T335_16H)/GpL16-k0 (antibody, human IgG1, kappa)
heavy: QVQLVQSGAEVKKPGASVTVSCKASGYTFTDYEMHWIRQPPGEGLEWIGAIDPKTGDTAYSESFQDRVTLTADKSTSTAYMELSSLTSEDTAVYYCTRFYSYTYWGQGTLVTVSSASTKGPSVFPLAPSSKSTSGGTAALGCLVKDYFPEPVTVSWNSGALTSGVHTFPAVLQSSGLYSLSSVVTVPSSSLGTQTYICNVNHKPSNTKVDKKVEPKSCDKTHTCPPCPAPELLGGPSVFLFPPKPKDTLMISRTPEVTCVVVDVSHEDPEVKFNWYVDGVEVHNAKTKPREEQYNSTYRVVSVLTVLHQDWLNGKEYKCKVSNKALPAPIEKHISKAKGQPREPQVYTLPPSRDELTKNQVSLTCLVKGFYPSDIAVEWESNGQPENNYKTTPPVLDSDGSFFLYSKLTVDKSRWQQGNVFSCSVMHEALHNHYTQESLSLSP
light: B1 light
notes: Homodimerized; both H chains altered; also called Ho Ab T335_16H
B23: GpH7-A5/GpH7-B3 variant (H268_10E)/GpL16-k0 (antibody, human IgG1, kappa)
heavy 1: not shown
heavy 2: not shown
light: B1 light
notes: Heterodimerized; only the B3 chain altered; also called He Ab H268_10E
B24: GpH7-B3 variant (Y300_19Q)/GpL16-k0 (antibody, human IgG1, kappa)
heavy: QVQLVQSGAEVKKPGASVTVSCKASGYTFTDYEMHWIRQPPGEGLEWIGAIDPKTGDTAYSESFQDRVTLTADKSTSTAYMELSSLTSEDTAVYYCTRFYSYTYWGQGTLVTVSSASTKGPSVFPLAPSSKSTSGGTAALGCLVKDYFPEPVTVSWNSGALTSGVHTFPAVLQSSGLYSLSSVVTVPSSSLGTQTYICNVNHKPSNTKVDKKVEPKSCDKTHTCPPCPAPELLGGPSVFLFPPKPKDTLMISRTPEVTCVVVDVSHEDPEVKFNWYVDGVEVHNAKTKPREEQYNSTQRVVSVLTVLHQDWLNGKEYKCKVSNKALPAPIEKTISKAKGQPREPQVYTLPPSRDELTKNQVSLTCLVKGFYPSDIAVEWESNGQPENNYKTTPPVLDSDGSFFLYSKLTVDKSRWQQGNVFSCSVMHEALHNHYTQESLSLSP
light: B1 light
notes: Homodimerized; both H chains altered; also called Ho Ab Y300_19Q
B25: GpH7-A5/GpH7-B3 variant (I336_14T)/GpL16-k0 (antibody, human IgG1, kappa)
heavy 1: not shown
heavy 2: not shown
light: B1 light
notes: Heterodimerized; only the B3 chain altered; also called He Ab I336_14T
B26: GpH7-A5/GpH7-B3 variant (I336_11K)/GpL16-k0 (antibody, human IgG1, kappa)
heavy 1: not shown
heavy 2: not shown
light: B1 light
notes: Heterodimerized; only the B3 chain altered; also called He Ab I336_11K
B27: GpH7-B3 variant (Y300_20W)/GpL16-k0 (antibody, human IgG1, kappa)
heavy: not shown
light: B1 light
notes: Homodimerized; both H chains altered; also called Ho Ab Y300_20W
B28: GpH7-B3 variant (T335_15Y)/GpL16-k0 (antibody, human IgG1, kappa)
heavy: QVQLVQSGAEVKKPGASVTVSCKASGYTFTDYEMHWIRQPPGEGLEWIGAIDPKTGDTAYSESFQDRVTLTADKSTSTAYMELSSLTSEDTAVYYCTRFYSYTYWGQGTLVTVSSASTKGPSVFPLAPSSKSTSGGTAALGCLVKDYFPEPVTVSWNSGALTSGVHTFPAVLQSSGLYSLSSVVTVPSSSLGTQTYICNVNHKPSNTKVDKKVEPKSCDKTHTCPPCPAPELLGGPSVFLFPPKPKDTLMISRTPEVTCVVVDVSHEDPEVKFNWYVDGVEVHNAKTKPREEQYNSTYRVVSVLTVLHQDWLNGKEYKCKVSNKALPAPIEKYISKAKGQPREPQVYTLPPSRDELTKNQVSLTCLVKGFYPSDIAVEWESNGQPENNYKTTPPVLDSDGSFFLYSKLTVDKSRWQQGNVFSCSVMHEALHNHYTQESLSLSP
light: B1 light
notes: Homodimerized; both H chains altered; also called Ho Ab T335_15Y
B29: GpH7-A5/GpH7-B3 variant (H268_13S)/GpL16-k0 (antibody, human IgG1, kappa)
heavy 1: not shown
heavy 2: not shown
light: B1 light
notes: Heterodimerized; only the B3 chain altered; also called He Ab H268_13S
B30: GpH7-A5/GpH7-B3 variant (I336_13S)/GpL16-k0 (antibody, human IgG1, kappa)
heavy 1: not shown
heavy 2: not shown
light: B1 light
notes: Heterodimerized; only the B3 chain altered; also called He Ab I336_13S
B31: GpH7-B3 variant (T335_11K)/GpL16-k0 (antibody, human IgG1, kappa)
heavy: not shown
light: B1 light
notes: Homodimerized; both H chains altered; also called Ho Ab T335_11K
B32: GpH7-A5/GpH7-B3 variant (H268_18N)/GpL16-k0 (antibody, human IgG1, kappa)
heavy 1: not shown
heavy 2: not shown
light: B1 light
notes: Heterodimerized; only the B3 chain altered; also called He Ab H268_18N
B33: GpH7-B3 variant (Y296_11K)/GpL16-k0 (antibody, human IgG1, kappa)
heavy: not shown
light: B1 light
notes: Homodimerized; both H chains altered; also called Ho Ab Y296_11K
B34: GpH7-B3 variant (Y300_03V)/GpL16-k0 (antibody, human IgG1, kappa)
heavy: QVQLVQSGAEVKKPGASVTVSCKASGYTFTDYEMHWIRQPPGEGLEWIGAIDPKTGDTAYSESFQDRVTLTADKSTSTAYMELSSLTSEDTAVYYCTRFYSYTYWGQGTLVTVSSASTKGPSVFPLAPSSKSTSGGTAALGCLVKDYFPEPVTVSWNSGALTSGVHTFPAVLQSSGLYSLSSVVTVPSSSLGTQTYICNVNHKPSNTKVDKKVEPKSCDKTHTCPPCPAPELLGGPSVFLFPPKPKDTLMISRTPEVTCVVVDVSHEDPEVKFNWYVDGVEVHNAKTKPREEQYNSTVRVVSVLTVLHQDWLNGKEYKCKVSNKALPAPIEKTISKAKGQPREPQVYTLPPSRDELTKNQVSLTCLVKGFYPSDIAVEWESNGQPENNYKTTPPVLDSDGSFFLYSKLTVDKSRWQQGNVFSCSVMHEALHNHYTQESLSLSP
light: B1 light
notes: Homodimerized; both H chains altered; also called Ho Ab Y300_03V
B35: GpH7-B3 variant (Y296_16H)/GpL16-k0 (antibody, human IgG1, kappa)
heavy: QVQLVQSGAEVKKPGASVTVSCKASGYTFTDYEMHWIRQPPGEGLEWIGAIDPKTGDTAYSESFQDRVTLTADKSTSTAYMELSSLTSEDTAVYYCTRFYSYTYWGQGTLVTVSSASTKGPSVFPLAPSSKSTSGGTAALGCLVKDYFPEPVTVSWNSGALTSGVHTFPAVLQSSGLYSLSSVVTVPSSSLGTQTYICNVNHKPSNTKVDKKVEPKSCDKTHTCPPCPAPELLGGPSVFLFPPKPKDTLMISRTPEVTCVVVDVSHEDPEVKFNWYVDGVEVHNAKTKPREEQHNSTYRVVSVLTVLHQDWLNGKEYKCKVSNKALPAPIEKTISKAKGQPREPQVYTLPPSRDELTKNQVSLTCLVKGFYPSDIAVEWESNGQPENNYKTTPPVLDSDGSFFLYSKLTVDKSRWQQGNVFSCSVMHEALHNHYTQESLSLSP
light: B1 light
notes: Homodimerized; both H chains altered; also called Ho Ab Y296_16H
B36: GpH7-A5/GpH7-B3 variant (A330_20W)/GpL16-k0 (antibody, human IgG1, kappa)
heavy 1: not shown
heavy 2: not shown
light: B1 light
notes: Heterodimerized; only the B3 chain altered; also called He Ab A330_20W
B37: GpH7-B3 variant (T335_19Q)/GpL16-k0 (antibody, human IgG1, kappa)
heavy: not shown
light: B1 light
notes: Homodimerized; both H chains altered; also called Ho Ab T335_19Q
B38: GpH7-B3 variant (Y300_13S)/GpL16-k0 (antibody, human IgG1, kappa)
heavy: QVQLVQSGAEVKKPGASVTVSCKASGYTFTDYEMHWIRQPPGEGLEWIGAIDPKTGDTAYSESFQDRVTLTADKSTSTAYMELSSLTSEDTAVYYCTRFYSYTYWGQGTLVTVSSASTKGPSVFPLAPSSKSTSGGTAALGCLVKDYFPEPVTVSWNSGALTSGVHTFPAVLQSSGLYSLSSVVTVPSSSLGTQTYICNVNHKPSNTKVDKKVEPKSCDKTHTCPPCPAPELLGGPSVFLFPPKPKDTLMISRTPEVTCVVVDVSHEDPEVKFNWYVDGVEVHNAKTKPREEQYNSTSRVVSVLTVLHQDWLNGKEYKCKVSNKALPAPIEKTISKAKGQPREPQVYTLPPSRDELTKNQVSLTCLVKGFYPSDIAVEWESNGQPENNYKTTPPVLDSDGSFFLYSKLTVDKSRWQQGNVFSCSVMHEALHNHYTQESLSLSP
light: B1 light
notes: Homodimerized; both H chains altered; also called Ho Ab Y300_13S
B39: GpH7-A5/GpH7-B3 variant (H268_01G)/GpL16-k0 (antibody, human IgG1, kappa)
heavy 1: not shown
heavy 2: not shown
light: B1 light
notes: Heterodimerized; only the B3 chain altered; also called He Ab H268_01G
B40: GpH7-B3 variant (Y300_11K)/GpL16-k0 (antibody, human IgG1, kappa)
heavy: not shown
light: B1 light
notes: Homodimerized; both H chains altered; also called Ho Ab Y300_11K
B41: GpH7-B3 variant (T335_12R)/GpL16-k0 (antibody, human IgG1, kappa)
heavy: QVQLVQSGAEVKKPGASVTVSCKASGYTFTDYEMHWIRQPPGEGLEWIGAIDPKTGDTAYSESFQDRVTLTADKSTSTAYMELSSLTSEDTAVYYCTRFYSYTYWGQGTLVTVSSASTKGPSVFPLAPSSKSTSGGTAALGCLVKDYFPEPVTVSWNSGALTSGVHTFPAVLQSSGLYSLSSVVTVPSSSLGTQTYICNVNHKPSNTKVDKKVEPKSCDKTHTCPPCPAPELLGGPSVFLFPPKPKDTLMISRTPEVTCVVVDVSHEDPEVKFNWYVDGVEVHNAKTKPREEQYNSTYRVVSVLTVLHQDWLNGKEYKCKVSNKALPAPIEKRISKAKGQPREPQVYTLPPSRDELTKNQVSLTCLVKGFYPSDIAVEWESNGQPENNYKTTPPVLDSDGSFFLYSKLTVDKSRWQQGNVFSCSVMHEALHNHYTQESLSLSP
light: B1 light
notes: Homodimerized; both H chains altered; also called Ho Ab T335_12R
B42: GpH7-B3 variant (T335_20W)/GpL16-k0 (antibody, human IgG1, kappa)
heavy: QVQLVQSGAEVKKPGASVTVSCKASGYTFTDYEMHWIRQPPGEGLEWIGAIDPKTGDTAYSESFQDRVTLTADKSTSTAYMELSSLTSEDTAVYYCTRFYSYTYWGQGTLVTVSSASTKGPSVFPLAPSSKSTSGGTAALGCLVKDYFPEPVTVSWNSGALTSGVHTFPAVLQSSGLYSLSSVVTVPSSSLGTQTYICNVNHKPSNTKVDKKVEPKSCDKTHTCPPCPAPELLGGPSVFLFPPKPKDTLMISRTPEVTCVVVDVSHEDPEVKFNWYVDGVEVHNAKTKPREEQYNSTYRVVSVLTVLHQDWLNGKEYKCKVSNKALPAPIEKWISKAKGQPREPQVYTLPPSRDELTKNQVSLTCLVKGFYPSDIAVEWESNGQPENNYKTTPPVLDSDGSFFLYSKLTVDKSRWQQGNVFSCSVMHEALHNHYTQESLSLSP
light: B1 light
notes: Homodimerized; both H chains altered; also called Ho Ab T335_20W
B43: GpH7-B3 variant (Y296_12R)/GpL16-k0 (antibody, human IgG1, kappa)
heavy: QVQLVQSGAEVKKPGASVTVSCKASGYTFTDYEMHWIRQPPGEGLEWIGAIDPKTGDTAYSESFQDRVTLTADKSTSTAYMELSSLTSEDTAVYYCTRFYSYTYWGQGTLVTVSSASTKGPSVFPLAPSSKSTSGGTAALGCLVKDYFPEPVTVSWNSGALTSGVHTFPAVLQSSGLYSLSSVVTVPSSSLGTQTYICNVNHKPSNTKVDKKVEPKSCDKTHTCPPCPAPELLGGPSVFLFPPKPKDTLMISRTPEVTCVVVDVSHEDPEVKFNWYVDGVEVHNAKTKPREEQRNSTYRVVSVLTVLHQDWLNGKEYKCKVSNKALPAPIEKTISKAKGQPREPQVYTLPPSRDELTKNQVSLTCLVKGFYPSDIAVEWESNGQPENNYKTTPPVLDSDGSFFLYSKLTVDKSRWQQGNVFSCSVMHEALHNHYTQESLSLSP
light: B1 light
notes: Homodimerized; both H chains altered; also called Ho Ab Y296_12R
B44: GpH7-B3 variant (Y300_14T)/GpL16-k0 (antibody, human IgG1, kappa)
heavy: not shown
light: B1 light
notes: Homodimerized; both H chains altered; also called Ho Ab Y300_14T

Assays:
[1] = target: T1, FcγRIa extracellular domain with C-terminal His tag (human, UniProt P12314 16-292); experiment: SPR (Biacore), captured antibody, FcγRIa analyte; relative to GpH7-B3/GpL16-k0 = 100
T1 construct: extracellular domain; Expressed in FreeStyle293 cells; used as analyte in Biacore; also called FcgRI; 1a; not shown: His tag at the C terminus

[2] = target: T1, FcγRIa extracellular domain with …; experiment: SPR (Biacore), captured antibody, FcγRIa analyte; relative to GpH7-A5/GpH7-B3/GpL16-k0 = 100

T1 sequence (P12314 16-292): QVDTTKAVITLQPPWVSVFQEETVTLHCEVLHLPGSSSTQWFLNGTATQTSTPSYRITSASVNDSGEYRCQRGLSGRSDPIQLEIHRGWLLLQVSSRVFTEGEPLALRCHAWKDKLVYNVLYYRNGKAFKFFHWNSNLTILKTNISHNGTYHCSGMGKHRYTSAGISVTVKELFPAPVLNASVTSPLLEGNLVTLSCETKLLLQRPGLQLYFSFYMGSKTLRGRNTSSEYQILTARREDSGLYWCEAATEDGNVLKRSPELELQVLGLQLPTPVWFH

Binder	Ho/Con_1a [1]	He/Con_1a [2]
B1	106 % of control	
B2		105 % of control
B3	110 % of control	
B4	102 % of control	
B5		101 % of control
B6		104 % of control
B7		106 % of control
B8		102 % of control
B9	107 % of control	
B10	108 % of control	
B11	111 % of control	
B12	106 % of control	
B13	105 % of control	
B14		105 % of control
B15	104 % of control	
B16		107 % of control
B17		106 % of control
B18		107 % of control
B19		110 % of control
B20	105 % of control	
B21	109 % of control	
B22	104 % of control	

Binder	Ho/Con_1a [1]	He/Con_1a [2]
B23		111 % of control
B24	110 % of control	
B25		104 % of control
B26		105 % of control
B27	110 % of control	
B28	106 % of control	
B29		109 % of control
B30		102 % of control
B31	103 % of control	
B32		108 % of control
B33	102 % of control	
B34	112 % of control	
B35	105 % of control	
B36		108 % of control
B37	105 % of control	
B38	110 % of control	
B39		107 % of control
B40	101 % of control	
B41	106 % of control	
B42	104 % of control	
B43	103 % of control	
B44	110 % of control	
